Measured values published in US20210244785A1.

Assays:
[1] = target: S. epidermidis delta-haemolysin (Staphylococcus epidermidis); assay: tryptophan fluorescence, urea dissociation of multimeric peptide complexes, 5 µM peptide
[2] = target: S. epidermidis delta-haemolysin (Staphylococcus epidermidis); assay: tryptophan fluorescence, urea dissociation of multimeric peptide complexes, 25 µM peptide
[3] = tryptophan fluorescence, urea dissociation of multimeric peptide complexes, 5 µM peptide
[4] = tryptophan fluorescence, urea dissociation of multimeric peptide complexes, 25 µM peptide

S. epidermidis delta-haemolysin (peptide)
deltaG (H2O) (5 µM peptide) [1]: 5.98 kJ/mol
deltaG (H2O) (25 µM peptide) [2]: 6.57 kJ/mol

S. epidermidis delta-haemolysin
midpoint of urea unfolding curve (5 µM peptide) [3]: The midpoints of the unfolding curves of 5 µM and 25 µM were 2.14 and 3.20M urea
midpoint of urea unfolding curve (25 µM peptide) [4]: The midpoints of the unfolding curves of 5 µM and 25 µM were 2.14 and 3.20M urea
